Where a name gives a salt, the structure may show the parent alone.
What was measured:
murine BBB [1] = test: Blood-to-brain 125I-insulin transport, multiple-time regression analysis; type: in vivo, mouse
Experimental: (§1) This experimental set‐up was based on previous studies investigating the acute effect of rosiglitazone. ^35 , ^36
(§2) Mice were decapitated, and the brain was collected immediately, dissected into the hypothalamus, olfactory bulb and remaining whole brain and weighed. Blood was centrifuged at 5400g for 10 min and serum collected. Radioactivity in 50 µL of serum and entire brain samples were counted in a gamma counter (Wizard2; Perkin Elmer).
Exposure time is calculated by the formula:(1) Exposure time=∫0tCp(t)dt/Cp(t) where Cp(t) is the level of radioactivity (cpm) in serum at time (t). Exposure time corrects for the clearance of peptide from the blood. […] The slope of the linearity measures K i and is reported with its standard error term. […] For cardiac perfusion studies, formula 2 is employed, using the brain/perfusate ratios and the clock time is used in place of exposure time.

murine BBB [2] = test: Transcardiac brain perfusion of 125I-insulin, multiple-time regression analysis; conditions: mouse, in vivo
Text: as §1
The perfusate was freshly prepared for each study day. Perfusate was collected throughout the study to determine the average cpm/µL of perfusate. After perfusion, the olfactory bulb was collected and the brain dissected into regions (frontal/parietal/occipital cortex, striatum, hypothalamus, hippocampus, thalamus, cerebellum, midbrain and pons/medulla) according to Glowinski and Iversen; ^38 each region was weighed separately. The amount of radioactivity was determined by a gamma counter (Wizard2, Perkin Elmer). Brain/perfusate ratios are calculated by dividing the cpm in a gram of brain by the cpm in a µL of perfusate to yield units of µL/g.
Exposure time is calculated by the formula:(1) Exposure time=∫0tCp(t)dt/Cp(t) where Cp(t) is the level of radioactivity (cpm) in serum at time (t). Exposure time corrects for the clearance of peptide from the blood. […] The slope of the linearity measures K i and is reported with its standard error term. The y‐intercept of the linearity measures V i, the initial volume of distribution in brain at t = 0. ^37 Blasberg, Fenstermacher and Patlak originally described V i as the volume of test substance that rapidly and reversibly exchanges with the plasma (Blasberg 1983). For cardiac perfusion studies, formula 2 is employed, using the brain/perfusate ratios and the clock time is used in place of exposure time.

[3] = mouse, in vivo, iv
Experimental: as §2

[4] = tested on: brain capillary sequestration; type: in vivo, mouse
Experimental: Two and a half minutes later, blood was collected from the carotid, the mice decapitated and the whole brain removed. […] Homogenates were then centrifuged at 3500 g for 20 minutes at 4°C with a swinging bucket rotor (Beckman Coulter). The brain capillary fraction contained in the pellet and the supernatant containing the brain parenchyma were carefully separated. […] Fractions were expressed as percentages of total brain.

P‐glycoprotein = conditions: cited from earlier work
Text: (§3) However, we were interested in the direct effect that would be mediated at the luminal surface of the brain endothelial cell, rather than an effect within the CNS. Indeed, PPARγ activation is known to have a direct effect on cerebral vascular expression of proteins, including various adhesion molecules and metalloproteinases. ^61 Therefore, we know brain en ...

murine BBB [5] = conditions: mouse, in vivo, iv; cited from earlier work
Text: as §3

effect on 125I-insulin vascular binding (V i), whole brain (murine BBB [1]; 1 µg S961 (P = .0006), 10 µg RSG pretreatment with S961 (P = .044), two-way ANOVA, Sidak)	effect on 125I-insulin vascular binding (V i), hypothalamus (murine BBB [1]; 1 µg S961 (P = .002), 10 µg RSG pretreatment with S961 (P = .025), two-way ANOVA, Sidak)	Molecule	BBB transport rate K i, hypothalamus (murine BBB [1]; mouse, in vivo) [µL/g‐min]	average rate of transport K i, hypothalamus (murine BBB [1]; mouse, in vivo) [µL/g‐min]	average rate of transport K i, olfactory bulb (murine BBB [1]; mouse, in vivo) [µL/g‐min]	vascular binding V i, hypothalamus (murine BBB [1]; mouse, in vivo) [µL/g]	vascular binding V i, olfactory bulb (murine BBB [1]; mouse, in vivo) [µL/g]	BBB transport rate K i, whole brain (murine BBB [1]; mouse, in vivo, iv) [µL/g‐min]	BBB transport rate K i following cardiac perfusion, hypothalamus (murine BBB [2]) [µL/g‐min]	BBB transport rate K i following cardiac perfusion, olfactory bulb (murine BBB [2]) [µL/g‐min]	change of hypothalamic BBB transport rate in the absence of serum (murine BBB [2])	vascular binding V i following cardiac perfusion, hypothalamus (murine BBB [2]) [µL/g]	vascular binding V i following cardiac perfusion, olfactory bulb (murine BBB [2]) [µL/g]	average half‐time clearance from blood [3] [min]	fraction of radioactivity in brain parenchyma vs capillary fraction ([4]; mouse, in vivo, iv)	effect on rate of 125I-insulin BBB transport (murine BBB [1]; whole brain, olfactory bulb, hypothalamus, 10 µg RSG pretreatment, 1 µg S961 co-injected)	effect on capillary/parenchyma distribution of 125I-insulin ([4]; 10 µg RSG pretreatment, data not shown)	P‐glycoprotein interaction (P‐glycoprotein)	penetration of the murine BBB (murine BBB [5])	time of brain uptake (murine BBB [5]) [min]
		125I‐insulin: human insulin (Sigma‐Aldrich) radioactively labelled with 125I by the chloramine‐T method	1.39 ± 0.28	1.75	2.25	11.6 ± 2.0	10.4 ± 4.8	1.26 ± 0.17	6.11 ± 1.92	3.34 ± 1.31	nearly tripled	-4.5 ± 5.7	13.5 ± 4.4	1.54	majority					
prevented this decrease in binding	prevented this decrease in binding	CN(CCOc1ccc(CC2SC(=O)NC2=O)cc1)c1ccccn1 (centres unmarked) [RSG, rosiglitazone maleate]														did not significantly alter	no overt differences	substrate of p‐glycoprotein	0.045 % of an iv injected dose	≤ 1

From article PMC7375048, “The impact of acute rosiglitazone on insulin pharmacokinetics at the blood‐brain barrier” (Endocrinology, Diabetes & Metabolism, 2020)
